Test results: the RNAGym collection of RNA variant scans (doi:10.1073/pnas.2313332121)

B1: TPR t1 (parent)
chain: GACCAAUCUGCCCUCAGAGCUCGAGAACAUCUUCGGAUGCAGAGGAGGCAGGCUUCGGUGGCGCGAUAGCGCCAACGUCCUCAACCUCCAAUGCAUCCCACCACAUGAUGAUGCCUGAAGAGCCUUGGUUUUUUG

Variants of: B1
Assay: polymerase ribozyme fitness, log enrichment relative to wild type (log ratio); higher = more active; in vitro selection for triplet polymerase activity
Method in brief: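 Only genotypes with ≥10 input reads and ≥1 read per output were kept after Illumina sequencing of input and output libraries. These libraries were PCR-built, transcribed mutants of each subunit of a heterodimeric triplet polymerase ribozyme, each put through one triplicate in vitro selection round with frozen incubation at −7 °C, gel excision of extended constructs, streptavidin-bead capture and RT-PCR. Fitness is a logarithmic ratio of genotype enrichment to wild-type enrichment, from inverse-variance-weighted replicate averages, with the logarithm in base 2.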

Variant	polymerase ribozyme fitness (log ratio)
C82A G93A A100C C123U U125A	-1
C79U U129G	-1.35
C82A A91C	-1.72
C80G G110C	-6.58
C82A G113U C114U	-1.55
C79U U106A U116G	-2.6
C82A U116C C123A	-2.84
C80A U112G	-4.16
C82A C85A G120U	-0.479
C80U A105C U112G G120C	-3.27
U81A A91C C97A A105G C123G	-8.06
C82G A91C	-2.29
U81G C101A U106A	-2.9
C80G A118U	-5.08
U81A A95U C102G A103U G110C U125G	-6.02
C80U G117A	-2.28
U81C C88A A90U C104G G120U	-7.44
C82A U126A	-2.16
C80U U96C	-0.313
C80U C88U G127C	-1.46
C80A G135U	-3.76
U81G C86U G120U U133A	-4.01
C82A C88A U96A	-1.57
C80A C97G G117C	-7.22

Variant	polymerase ribozyme fitness (log ratio)
U81A C86U	-1.8
U81A C86A	-2.24
C80A A121C	-1.11
C79U G107A	-4.41
C80U C115U	-2.06
U81A C89A	-2.06
C80A A95U C114U C124U	-7.55
C79U C88U C97U	-0.508
U81G C82A A84C G120U	-1.07
U81A A121U	1.04
U81G A84C U116A G120C	-3.83
C82G	-0.684
C82A	-0.485
U81A A83U C115A	-1.27
C80A C94A U112C	-2.27
C79U C80U	-2.32
U81A C101A G110C U131G G135U	-7.53
C79U U130A	-1.2
C80G U106A G122A	-6.86
C79U G117A U125G	-1.82
C80U C94G	-1.73
C80U C82G C101A C124G U126A	-1.21
U81C C115A G128C U131G	-4.42
C82A C115G U130G	-1.11

Variant	polymerase ribozyme fitness (log ratio)
C80A G127U	-3.48
U81A U109A	-5.72
C82A U133A	-0.323
C82A G110C	-3.97
C80U G113C	-3.19
C82A G110C A121U	-3.02
C80G C124G	-4.49
C80A U81C	-4.02
U81C G93C	-1.57
C80A U106A	-3.28
C80A G120C	-2.2
C80A G120U	-2.35
C80A G113A	-3.03
C80A G113C	-5.5
C82A C99U G122A	-3.36
C82A C88A G113A	-1.71
C80U U131G	-0.642
C82G A84U	0.00652
C79U U96G	-0.798
U81A G93C	-2.88
U81G C82A	-2
U81C G117A A119U	-3.73
C80G U87A A90U A111C	-6.64
C80A A91G G120U	-5.41

Variant	polymerase ribozyme fitness (log ratio)
U81C C82G G113C C115G A118G	-7.41
C80U A84U G135C	-0.488
C80U C98G	-6.73
U81A U92A A118G	-5.64
C80A C115U	-4.97
C80U A118C	-3.16
C80U C82U U96A	-1.82
U81A G110U	-2.6
C80U C89A A119U	-2.89
U81C C85A C89A	-4.24
C80U G113C G135C	-2.92
C80U C98A U132C	-5.2
C80U G127C	-3.21
U81C U112A U125G	-0.145
C80A A95G	-3.38
C82A C89A A105U U112G	-4.43
U81A A90G	-0.0144
C80U U81A C89U U126G	-3.21
C82A A103U	-6.11
C80U A119G	0.683
C80U A103G	-5.21
C82A A84C G110C	-4.7
U81G U87C	-2.82
U81A C85U	-2.56

Variant	polymerase ribozyme fitness (log ratio)
C80A G117U	-5.19
C80G A100C U131A	-5.8
C80U C114U	-2.33
C80A C86U	-3.32
U81C C89A A111G	-2.87
C79U C101G	-1.8
C80U C123A U129C	-1.18
U81A C88A C101U	-1.46
C79U G110A	-0.826
C79U U87A	0.23
C80U C115A G120A U125A	-1.71
C79U C80U U112A	-2.98
U81A U131G	-0.926
C82A U109G	-4.53
C82G A83C	-0.655
U81A C104U	-0.577
C82A U112A	1.06
C82A C102A C114U	-4.27
U81C U87C A100U	-1.38
C79U C94U	-0.702
C80U C86U C114G C124G U125A	-3.38
U81A A111U	-5.01
U81A C97U	-1.89
C80U C98U C115A C124G	-0.376

Variant	polymerase ribozyme fitness (log ratio)
C80A G93A	-3.95
C80A G93U G120C	-4.31
C79U G128C	-2.48
C80U A83G	-1.23
C79U C114A G120C G127U	-1.06
C79U C86U	-0.175
C80A C97A G107U C115U	-7.92
U81C C88U	0.221
C80A C94U	-2.69
U81C C88A C123G G135U	1.08
U81C A90C U112G	-2.24
U81A A95C A121C	0.395
C80A A84C	-3.11
U81G G113C	-4.85
C82A A105U	-2.27
C82A G93C	-1.06
C79U G93C A100U U112G	-2.61
C82A G93C C115U G122A	-3.46
U81A U87C A121G	1.6
C80A A118G	-3.23
C80U G107A	-6.42
C80A A108G	-5.73
C80G G117C	-6.43
C80U C101U	-0.367

Variant	polymerase ribozyme fitness (log ratio)
C80U C101A	-1.52
U81C G128U	-2.54
C80U U129G U133A	-2.36
C80G U112A	-5.14
C80U C89G	-1.42
U81G U106G C124U	-5.53
C79U C114U	-2.32
C79U G120A	0.635
C82A A111U	-3.3
C79U U81C	-1.91
U81C A83G	-1.15
C82A C85A	-1.3
C80U U92C	-2.1
C82A U129A	-2.69
C82A U129C	-0.227
C80U C88G C124U	-1.05
C80A U87G	-2.88
C80U C88U	-0.555
C82A G120C	-0.101
C79U G117A A119U	-4
U81C C115G	-2.02
C79U U92G C115G	-3.67
U81C C102U	-2.2
